Measured values as given in PMC9352680, “A comprehensive thermodynamic model for RNA binding by the Saccharomyces cerevisiae Pumilio protein PUF4”.

T1: PUF4 RNA-binding domain (Saccharomyces cerevisiae, UniProt P25339 537-888)
T1 sequence: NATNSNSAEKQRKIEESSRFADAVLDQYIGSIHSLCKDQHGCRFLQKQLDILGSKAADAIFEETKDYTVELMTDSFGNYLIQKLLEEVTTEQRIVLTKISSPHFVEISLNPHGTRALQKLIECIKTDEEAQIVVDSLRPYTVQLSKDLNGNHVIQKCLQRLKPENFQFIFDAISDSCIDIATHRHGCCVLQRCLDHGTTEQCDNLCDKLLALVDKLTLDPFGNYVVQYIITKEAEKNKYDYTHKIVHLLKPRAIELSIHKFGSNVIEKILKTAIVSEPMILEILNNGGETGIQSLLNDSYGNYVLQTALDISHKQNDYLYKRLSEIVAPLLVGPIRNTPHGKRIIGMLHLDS


target: T1, PUF4 RNA-binding domain; experiment: Mg; RNA-MaP; 20 mM Na-HEPES pH 7.4, 30 mM KOAc, 0.75 mM MgCl2, 0.1% Tween-20, 5% glycerol, 0.1 mg/mL BSA, 2 mM DTT; 25 C; 0.0125-409.6 nM protein; conditions: tags: N-His6-TEV cleaved; C-SNAP kept, Cy3B-labelled; label: tethered on chip by stalled RNA polymerase

Going from UCUCUUUCAAUAUAUCUCUU (ssRNA) [Ib_S1_P3E.1_K3.1_C3.1_H3.1_[G2C]_[T3A]_A3.1_F3.1_T3.1] to UCUCUUCGUGUAUAUCUCUU (ssRNA) [Ib_S1_P3E.1_K3.1_C3.1_H3.1_[T1C]_[A4G]_A3.1_F3.1_T3.1], the Kd falls from > 2300 nM to 26.7 nM.

Compared with UCUCUUUGUAUUUGCUUCUCUU (ssRNA) [Ic_S1_P5E.1_K5.1_C5.1_H5.1_A5.1_[A7T]_F5.1_[T8G]_[T9C]_[A10T]_T5.1], UCUCUUUGUAUACACUUCUCUU (ssRNA) [Ic_S1_P5E.1_K5.1_C5.1_H5.1_A5.1_[T6A]_[A7C]_F5.1_[T8A]_[T9C]_[A10T]_T5.1] is 4.7-fold lower in Kd: 324 nM for the first, 69.2 nM for the second.

First: UCUCUUUGUAUGUUCCUCUCUU (ssRNA) [Ic_S1_P5E.1_K5.1_C5.1_H5.1_A5.1_[T6G]_[A7T]_F5.1_[T9C]_[A10C]_T5.1]
Second: UCUCUUUGUACCCGCGUCUCUU (ssRNA) [Ic_S1_P5E.1_K5.1_C5.1_H5.1_A5.1_[T5C]_[T6C]_[A7C]_F5.1_[T8G]_[T9C]_[A10G]_T5.1]
The Kd of the first is lower: 28.6 nM for the first, > 2300 nM for the second.

Going from UCUCUUUGUACCCGAUUCUCUU (ssRNA) [Ic_S1_P5E.1_K5.1_C5.1_H5.1_A5.1_[T5C]_[T6C]_[A7C]_F5.1_[T8G]_[T9A]_[A10T]_T5.1] to UCUCUUUGUAAACUAUUCUCUU (ssRNA) [Ic_S1_P5E.1_K5.1_C5.1_H5.1_A5.1_[T5A]_[T6A]_[A7C]_F5.1_[T9A]_[A10T]_T5.1], the Kd falls from 1050 nM to 2.36 nM (440-fold).

First: UCUCUUUGUACGCGUCUCUCUU (ssRNA) [Ic_S1_P5E.1_K5.1_C5.1_H5.1_A5.1_[T5C]_[T6G]_[A7C]_F5.1_[T8G]_[A10C]_T5.1]
Second: UCUCUUUGUACCUUGGUCUCUU (ssRNA) [Ic_S1_P5E.1_K5.1_C5.1_H5.1_A5.1_[T5C]_[T6C]_[A7T]_F5.1_[T9G]_[A10G]_T5.1]
The Kd of the first is 19-fold higher: 1980 nM for the first, 103 nM for the second.

Going from UCUCUUUGUACAAUAAUCUCUU (ssRNA) [Ic_S1_P5E.1_K5.1_C5.1_H5.1_A5.1_[T5C]_[T6A]_F5.1_[T9A]_T5.1] to UCUCUUUGUAUGCAUAUCUCUU (ssRNA) [Ic_S1_P5E.1_K5.1_C5.1_H5.1_A5.1_[T6G]_[A7C]_F5.1_[T8A]_T5.1], the Kd rises from 1.94 nM to 36 nM (19-fold).

UCUCUUAGUGUAUAUCUCUU (ssRNA) [Ib_S1_P3E.1_K3.1_C3.1_H3.1_[T1A]_[A4G]_A3.1_F3.1_T3.1] and UCUCUUUGUAAACUUUUCUCUU (ssRNA) [Ic_S1_P5E.1_K5.1_C5.1_H5.1_A5.1_[T5A]_[T6A]_[A7C]_F5.1_[A10T]_T5.1] are within 1.5-fold of each other in Kd: 51.9 nM for the first, 37.5 nM for the second.

Going from UCUCUUUGUAGCAUCAUCUCUU (ssRNA) [Ic_S1_P5E.1_K5.1_C5.1_H5.1_A5.1_[T5G]_[T6C]_F5.1_[T9C]_T5.1] to UCUCUUUGUAAUGGUAUCUCUU (ssRNA) [Ic_S1_P5E.1_K5.1_C5.1_H5.1_A5.1_[T5A]_[A7G]_F5.1_[T8G]_T5.1], the Kd falls from 287 nM to 45.1 nM (6.4-fold). The second binds more tightly here.

First: UCUCUUUGUACACUCCUCUCUU (ssRNA) [Ic_S1_P5E.1_K5.1_C5.1_H5.1_A5.1_[T5C]_[T6A]_[A7C]_F5.1_[T9C]_[A10C]_T5.1]
Second: UCUCUUUGUACCAGUCUCUCUU (ssRNA) [Ic_S1_P5E.1_K5.1_C5.1_H5.1_A5.1_[T5C]_[T6C]_F5.1_[T8G]_[A10C]_T5.1]
The Kd of the first is 47-fold lower: 7.65 nM for the first, 363 nM for the second. The first binds more tightly here.

Going from UCUCUUUGUACCAGUGUCUCUU (ssRNA) [Ic_S1_P5E.1_K5.1_C5.1_H5.1_A5.1_[T5C]_[T6C]_F5.1_[T8G]_[A10G]_T5.1] to UCUCUUUGUACCAUUUUCUCUU (ssRNA) [Ic_S1_P5E.1_K5.1_C5.1_H5.1_A5.1_[T5C]_[T6C]_F5.1_[A10T]_T5.1], the Kd falls from 470 nM to 7.08 nM (66-fold).

Compared with UCUCUUUCCAUAUAUCUCUU (ssRNA) [Ib_S1_P3E.1_K3.1_C3.1_H3.1_[G2C]_[T3C]_A3.1_F3.1_T3.1], UCUCUUUGUACGCCCCUCUCUU (ssRNA) [Ic_S1_P5E.1_K5.1_C5.1_H5.1_A5.1_[T5C]_[T6G]_[A7C]_F5.1_[T8C]_[T9C]_[A10C]_T5.1] is lower in Kd: > 2300 nM for the first, 662 nM for the second.

UCUCUUUGUAUGGUUUUCUCUU (ssRNA) [Ic_S1_P5E.1_K5.1_C5.1_H5.1_A5.1_[T6G]_[A7G]_F5.1_[A10T]_T5.1] and UCUCUUUGUAUAGCCUUCUCUU (ssRNA) [Ic_S1_P5E.1_K5.1_C5.1_H5.1_A5.1_[T6A]_[A7G]_F5.1_[T8C]_[T9C]_[A10T]_T5.1] are within 1.5-fold of each other in Kd: 159 nM for the first, 114 nM for the second.

First: UCUCUUUGUAACCUCGUCUCUU (ssRNA) [Ic_S1_P5E.1_K5.1_C5.1_H5.1_A5.1_[T5A]_[T6C]_[A7C]_F5.1_[T9C]_[A10G]_T5.1]
Second: UCUCUUUGUACUUCGUUCUCUU (ssRNA) [Ic_S1_P5E.1_K5.1_C5.1_H5.1_A5.1_[T5C]_[A7T]_F5.1_[T8C]_[T9G]_[A10T]_T5.1]
The Kd of the first is 2.9-fold lower: 123 nM for the first, 352 nM for the second. The first binds more tightly here.

UCUCUUUGUAUGUGGUUCUCUU (ssRNA) [Ic_S1_P5E.1_K5.1_C5.1_H5.1_A5.1_[T6G]_[A7T]_F5.1_[T8G]_[T9G]_[A10T]_T5.1] and UCUCUUUGUACCCAUCUCUCUU (ssRNA) [Ic_S1_P5E.1_K5.1_C5.1_H5.1_A5.1_[T5C]_[T6C]_[A7C]_F5.1_[T8A]_[A10C]_T5.1] are within 1.5-fold of each other in Kd: 421 nM for the first, 603 nM for the second.

Going from UCUCUUUGUACCAUCUUCUCUU (ssRNA) [Ic_S1_P5E.1_K5.1_C5.1_H5.1_A5.1_[T5C]_[T6C]_F5.1_[T9C]_[A10T]_T5.1] to UCUCUUUGUACCAUGAUCUCUU (ssRNA) [Ic_S1_P5E.1_K5.1_C5.1_H5.1_A5.1_[T5C]_[T6C]_F5.1_[T9G]_T5.1], the Kd falls from 28 nM to 8.03 nM (3.5-fold). The second binds more tightly here.

First: UCUCUUUGUACCACCCUCUCUU (ssRNA) [Ic_S1_P5E.1_K5.1_C5.1_H5.1_A5.1_[T5C]_[T6C]_F5.1_[T8C]_[T9C]_[A10C]_T5.1]
Second: UCUCUUUGUACCGGCCUCUCUU (ssRNA) [Ic_S1_P5E.1_K5.1_C5.1_H5.1_A5.1_[T5C]_[T6C]_[A7G]_F5.1_[T8G]_[T9C]_[A10C]_T5.1]
The Kd of the first is lower: 523 nM for the first, > 2300 nM for the second. The first binds more tightly here.
